Results reported in article PMC6172425, “Structural basis of inactivation of human counterpart of mouse motor neuron degeneration 2 mutant in serine protease HtrA2” (Bioscience Reports, 2018).

Target: the molecule itself
Experiment: SEC; Superdex S200 HR 10/300, 10 mM HEPES pH 8.0, 100 mM NaCl, protein ~20 mg/ml, 0.2 ml/min; calibrated with BSA, alcohol dehydrogenase, β-amylase

Protein | binding result
Recombinant mature (Δ133) human HtrA2 S276C (enzyme, UniProt O43464 134-458, looked up, human serine protease HtrA2, mature processed form (Δ133): the 458 amino acid precursor without its first 133 residues, with S276C; Made by site-directed mutagenesis of the wild-type construct in pET-20b; also called hHtrA2S276C; human counterpart of the mouse mnd2 mutant; source: E. coli Rosetta (DE3), purified (Ni-NTA, gel filtration)) AVPSPPPASPRSQYNFIADVVEKTAPAVVYIEILDRHPFLGREVPISNGSGFVVAADGLIVTNAHVVADRRRVRVRLLSGDTYEAVVTAVDPVADIATLRIQTKEPLPTLPLGRSADVRQGEFVVAMGSPFALQNTITSGIVCSAQRPARDLGLPQTNVEYIQTDAAIDFGNSGGPLVNLDGEVIGVNTMKVTAGISFAIPSDRLREFLHRGEKKNSSSGISGSQRRYIGVMMLTLSPSILAELQLREPSFPDVQHGVLIHKVILGSPAHRAGLRPGDVILAIGEQMVQNAEDVYEAVRTQSQLAVQIRRGRETLTLYVTPEVTE | binds
Recombinant mature (Δ133) human HtrA2, wild type (enzyme, UniProt O43464 134-458, looked up, human serine protease HtrA2, mature processed form (Δ133): the 458 amino acid precursor without its first 133 residues, N-terminus AVPS; In pET-20b; PDB 1LCY is the S306A form of the mature protein; also called wt hHtrA2; hHtrA2; source: E. coli Rosetta (DE3), purified (Ni-NTA)) AVPSPPPASPRSQYNFIADVVEKTAPAVVYIEILDRHPFLGREVPISNGSGFVVAADGLIVTNAHVVADRRRVRVRLLSGDTYEAVVTAVDPVADIATLRIQTKEPLPTLPLGRSADVRQGEFVVAMGSPFALQNTITSGIVSSAQRPARDLGLPQTNVEYIQTDAAIDFGNSGGPLVNLDGEVIGVNTMKVTAGISFAIPSDRLREFLHRGEKKNSSSGISGSQRRYIGVMMLTLSPSILAELQLREPSFPDVQHGVLIHKVILGSPAHRAGLRPGDVILAIGEQMVQNAEDVYEAVRTQSQLAVQIRRGRETLTLYVTPEVTE | binds
